Key:
human CD21 protein = molecular target: T1, human CD21 protein (human, UniProt P20023 21-971, limits assumed); test: SPR (Biacore)
T1 construct: the Biacore set-up is not described; also called huCD21; CR2
T1 sequence (looked up): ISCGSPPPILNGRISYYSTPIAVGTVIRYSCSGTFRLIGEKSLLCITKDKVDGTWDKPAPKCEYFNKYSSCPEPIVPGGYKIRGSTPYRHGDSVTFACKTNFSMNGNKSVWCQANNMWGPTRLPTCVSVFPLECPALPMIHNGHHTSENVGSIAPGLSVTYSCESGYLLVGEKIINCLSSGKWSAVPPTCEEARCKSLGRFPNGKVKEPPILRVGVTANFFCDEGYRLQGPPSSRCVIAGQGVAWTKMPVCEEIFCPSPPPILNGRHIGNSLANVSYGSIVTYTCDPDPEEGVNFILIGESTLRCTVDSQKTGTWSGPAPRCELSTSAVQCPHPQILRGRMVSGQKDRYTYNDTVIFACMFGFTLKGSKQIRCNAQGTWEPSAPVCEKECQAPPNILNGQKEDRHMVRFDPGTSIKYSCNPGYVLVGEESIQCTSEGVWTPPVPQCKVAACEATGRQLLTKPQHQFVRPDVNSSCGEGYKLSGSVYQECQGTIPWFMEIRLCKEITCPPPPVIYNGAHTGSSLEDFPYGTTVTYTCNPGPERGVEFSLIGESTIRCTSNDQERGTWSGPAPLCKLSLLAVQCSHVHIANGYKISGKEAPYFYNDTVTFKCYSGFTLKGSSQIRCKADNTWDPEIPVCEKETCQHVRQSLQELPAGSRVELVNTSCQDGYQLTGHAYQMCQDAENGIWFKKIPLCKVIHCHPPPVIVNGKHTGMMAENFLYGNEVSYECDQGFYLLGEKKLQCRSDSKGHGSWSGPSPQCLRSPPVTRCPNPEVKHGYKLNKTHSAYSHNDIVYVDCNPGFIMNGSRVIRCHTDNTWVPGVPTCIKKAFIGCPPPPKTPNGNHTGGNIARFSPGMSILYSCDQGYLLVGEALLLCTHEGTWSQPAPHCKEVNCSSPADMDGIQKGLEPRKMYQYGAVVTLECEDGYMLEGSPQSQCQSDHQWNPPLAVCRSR

[1] = molecular target: T2, human CD21 on Raji B cells or primary B cells (human, UniProt P20023 21-1033); test: Raji B cell binding, flow cytometry
T2 construct: whole, on cells; also called cell-surface human CD21; Raji cells
T2 sequence (looked up): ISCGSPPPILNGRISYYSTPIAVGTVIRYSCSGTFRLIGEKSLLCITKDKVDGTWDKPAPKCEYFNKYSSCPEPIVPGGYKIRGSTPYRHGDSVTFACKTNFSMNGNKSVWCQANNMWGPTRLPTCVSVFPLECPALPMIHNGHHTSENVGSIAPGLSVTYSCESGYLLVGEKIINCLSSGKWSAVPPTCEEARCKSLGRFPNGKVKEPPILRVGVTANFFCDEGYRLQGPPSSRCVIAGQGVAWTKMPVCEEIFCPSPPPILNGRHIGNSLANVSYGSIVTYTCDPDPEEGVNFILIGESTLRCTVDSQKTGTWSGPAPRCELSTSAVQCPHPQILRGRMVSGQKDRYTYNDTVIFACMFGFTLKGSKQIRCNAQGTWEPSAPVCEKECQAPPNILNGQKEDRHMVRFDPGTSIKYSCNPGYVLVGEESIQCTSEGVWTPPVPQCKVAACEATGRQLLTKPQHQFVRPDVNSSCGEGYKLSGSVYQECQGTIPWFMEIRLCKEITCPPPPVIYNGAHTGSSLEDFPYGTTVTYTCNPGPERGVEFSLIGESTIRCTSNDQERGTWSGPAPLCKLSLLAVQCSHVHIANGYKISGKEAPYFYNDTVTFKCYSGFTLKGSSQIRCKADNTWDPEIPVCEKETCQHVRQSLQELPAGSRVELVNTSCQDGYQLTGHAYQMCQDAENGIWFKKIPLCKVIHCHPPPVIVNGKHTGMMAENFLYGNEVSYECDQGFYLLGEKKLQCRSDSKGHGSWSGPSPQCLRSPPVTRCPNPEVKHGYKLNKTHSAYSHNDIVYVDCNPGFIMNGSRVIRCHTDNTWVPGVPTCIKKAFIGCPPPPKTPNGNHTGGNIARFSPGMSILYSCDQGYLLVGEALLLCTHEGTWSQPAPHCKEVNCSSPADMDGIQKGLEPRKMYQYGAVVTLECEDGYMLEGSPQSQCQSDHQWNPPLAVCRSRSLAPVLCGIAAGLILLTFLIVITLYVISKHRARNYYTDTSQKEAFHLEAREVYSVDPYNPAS
Experimental: Ab15 binding to cell-surface human and cyno CD21 was determined using human Raji B cells (ATCC, Manassas, VA) and CHO cells over expressing cyno CD21. Cells expressing cyno CD21 were generated by transfecting CHO cells with a mammalian expression construct encoding full-length cyno CD21. Stable cell clones were selected on hygromycin-B, and their expression of cyno CD21 confirmed by flow cytometry.
For the Ab15 binding experiment, cells were dissociated with cell dissociation buffer (Sigma) and blocked on ice with PBS+3% bovine serum (BS)+human Fc blocker. Cells were stained on ice for 1 hr with 3-fold serially diluted Ab15 (starting from 50 nM), then washed with cold PBS. Secondary antibody (anti-human IgG-PE, 1:500 dilution, Invitrogen, cat. #H10104) was added on ice for 1 hr. Cells were washed with and resuspended in PBS, and analyzed for Ab15 binding on a BD Fortessa instrument.

B1: Ab15 (antibody, human IgG1, kappa, V domains shown)
VH: QVQLVQSGAEVKKPGSSVKVSCKASGGTFSSYAISWVRQAPGQGLEWMGRIIPILGIANYAQKFQGRVTITADKSTSTAYMELSSLRSEDTAVYYCAREDDSSGYYQDWGQGTLVTVSS
VL: EIVMTQSPATLSLSPGESATLSCRAGQSINSHLAWYQQKPGQSPSLLIYDASTRATGVPARFSGSGFGTEFTLTISSLQSEDFAVYFCQQYEYWYTFGQGTKLEIKR
notes: Tb-labeled in the HTRF assay; also called 36C01; SC38-36C01 (IgG1 version)
Work on B1 yielded a Kd (human CD21 protein) of 15.6 nM and an EC50 [1] of 1.38 nM.

Source: patent US20240376225A1 (CHILDREN S MEDICAL CENTER, published 2024)
